From patent US20260234262A1

Molecular target: Target 2 (canine examples 1 to 4) (canine)
Experiment: SPR, Biacore T200; antibody captured on anti-canine coupled CM5 chip, antigen in solution, 1:1 fit

B1: 02F09R3-Fc (Fc fusion)
chain: QVQLVESGGGLVQAGGSLRLSCVASGSTFSNLVMAWYRQAPGKQREWVARISLAGNTIYADSVKGRFTISRDNAKNTVYLQMNSLKIEDTAVYYCSRGGVDWGQGTQVTVSSGPGGQVPKRENGRVPRPPDCPKCPAPEAAGGPSVFIFPPKPKDTLLIARTPEVTCVVVDLDPEDPEVQISWFVDGKQMQTAKTQPREEQFNGTYRVVSVLPIGHQDWLKGKQFTCKVNNKALPSPIERTISKARGQAHQPSVYVLPPSREELSKNTVSLTCLIKDFFPPDIDVEWQSNGQQEPESKYRTTPPQLDEDGSYFLYSKLSVDKSRWQRGDTFICYVMHEALHNHYTQESLSHSP
modifications: N-terminal pyroglutamate (PyroQ) observed by intact mass
- Kd: 0.213 nM
- koff: 6.24e-05 s⁻¹
- kon: 293000 M⁻¹ s⁻¹
